Laboratory results taken from article PMC3340421 (Biochemistry, 2009).

Assays:
[1] = cited from earlier work
[2] = MP-FRaP
[3] = time-resolved emission of free [Re]-peptides; assay type: physicochemical; conditions: free peptide
α2 = α2 (Escherichia coli, UniProt P00452); test: peptide binding to α2 by steady-state emission titration; parameters: species or system E. coli; conditions: 5 μM peptide, α2 0→65 μM, pH 7.5
[4] = [Re^II(bpy•−)]* couple; cited from earlier work
[5] = target: Ac-Y-βC19 peptide C-terminal 19-residue peptide (Escherichia coli) (UniProt P69924); conditions: cited from earlier work
[6] = target: [Re]-Y-βC19 peptide (C-terminal tail of beta2) 356-375 (Escherichia coli, UniProt P69924, Re(bpy)(CO)3CN appended at N-terminus of peptide); test: steady-state emission titration
[Re]-Y-βC19 peptide (C-terminal tail of beta2) 356-375, sequence (P69924 356-375): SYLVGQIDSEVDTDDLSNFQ

[7] = α2 radius by DLS or crystal structure and Einstein-Stokes diffusion coefficient; conditions: for diffusion coefficient kd2: Einstein-Stokes, 25 °C, η ∼1 cP

CC(=O)N[C@@H](Cc1cc(F)c(O)c(F)c1)C(N)=O [Ac-3,5-F2Y-NH2]
pKa of 3,5-F2Y amino acid in solution [1]: 7.2

CC[C@H](C)[C@H](NC(=O)[C@H](CCC(N)=O)NC(=O)CNC(=O)[C@@H](NC(=O)[C@H](CC(C)C)NC(=O)[C@H](Cc1ccc(O)cc1)NC(=O)c1ccnc(-c2cc(C)ccn2)c1)C(C)C)C(=O)N[C@@H](CC(=O)O)C(=O)N[C@@H](CO)C(=O)N[C@@H](CCC(=O)O)C(=O)N[C@H](C(=O)N[C@@H](CC(=O)O)C(=O)N[C@H](C(=O)N[C@@H](CC(=O)O)C(=O)N[C@@H](CC(=O)O)C(=O)N[C@@H](CC(C)C)C(=O)N[C@@H](CO)C(=O)N[C@@H](CC(N)=O)C(=O)N[C@@H](Cc1ccccc1)C(=O)N[C@@H](CCC(N)=O)C(=O)N[C@@H](CC(C)C)C(=O)O)[C@@H](C)O)C(C)C [[Re]-Y-βC19]
diffusion coefficient kd1 [2]: 6.1 × 10^−7 cm^−1 s^–1 | emission decay lifetime τ1 ([3]; pH 12, bi-exponential fit): 0.5 ns | emission decay lifetime τ2 ([3]; pH 12, bi-exponential fit): 3.0 ns | fraction of emission decay component τ1 ([3]; pH 12, bi-exponential fit): 86% | fraction of emission decay component τ2 ([3]; pH 12, bi-exponential fit): 14% | emission lifetime τ ([3]; pH < 10): 62 ± 2 ns | change of emission band upon binding to α2 (α2): the emission band blue shifts and increases in intensity

Re(bpy)(CO)3CN [[Re]]
excited state reduction potential E° [4]: 1.59 V vs. NHE

ribonucleotide reductase alpha2 (from UniProt P00452)
Kd [5]: 20 µM

B1: Ribonucleotide reductase R1 subunit alpha2 (protein)
chain: MNQNLLVTKRDGSTERINLDKIHRVLDWAAEGLHNVSISQVELRSHIQFYDGIKTSDIHETIIKAAADLISRDAPDYQYLAARLAIFHLRKKAYGQFEPPALYDHVVKMVEMGKYDNHLLEDYTEEEFKQMDTFIDHDRDMTFSYAAVKQLEGKYLVQNRVTGEIYESAQFLYILVAACLFSNYPRETRLQYVKRFYDAVSTFKISLPTPIMSGVRTPTRQFSSCVLIECGDSLDSINATSSAIVKYVSQRAGIGINAGRIRALGSPIRGGEAFHTGCIPFYKHFQTAVKSCSQGGVRGGAATLFYPMWHLEVESLLVLKNNRGVEGNRVRHMDYGVQINKLMYTRLLKGEDITLFSPSDVPGLYDAFFADQEEFERLYTKYEKDDSIRKQRVKAVELFSLMMQERASTGRIYIQNVDHCNTHSPFDPAIAPVRQSNLCLEIALPTKPLNDVNDENGEIALCTLSAFNLGAINNLDELEELAILAVRALDALLDYQDYPIPAAKRGAMGRRTLGIGVINFAYYLAKHGKRYSDGSANNLTHKTFEAIQYYLLKASNELAKEQGACPWFNETTYAKGILPIDTYKKDLDTIANEPLHYDWEALRESIKTHGLRNSTLSALMPSETSSQISNATNGIEPPRGYVSIKASKDGILRQVVPDYEHLHDAYELLWEMPGNDGYLQLVGIMQKFIDQSISANTNYDPSRFPSGKVPMQQLLKDLLTAYKFGVKTLYYQNTRDGAEDAQDDLVPSIQDDGCESGACKI
Kd [6]: 9 µM

B2: α2: active site-containing subunit of RNR, E. coli class I, homodimer (protein, UniProt P00452 1-761, looked up)
Ribonucleoside-diphosphate …: B1 chain
diffusion coefficient kd2 ([7]; DLS radius 55.8 Å): 3.9 × 10^−7 cm^2 s^−1 | diffusion coefficient kd2 ([7]; crystal structure radius 40.4 Å): 5.4 × 10^−7 cm^2 s^−1 | radius estimated from crystal structure ([7]; eq 5 with d1, d2, d3 = 100.7, 71.4, 73.2 Å): 40.4 Å
